This assay has as its target CaM-Sepharose 4B (calmodulin on Sepharose resin) (UniProt P62157 1-149). Nature of the assay: pull-down; equilibrium binding of purified synGAP (1-500 nM, 300 µl) to 50 µl CaM-Sepharose 4B, 60 min; 50 mM Tris pH 7.5, 200 mM NaCl, 5 mM TCEP, 2 mM CaCl2; bound protein by quantitative immunoblot; hyperbolic fit. Particulars: both partners purified. (Immunoblotting shows a protein as a band on a membrane.)

The results in this text go back to article PMC5040590, “A model for regulation by SynGAP-α1 of binding of synaptic proteins to PDZ-domain 'Slots' in the postsynaptic density” (eLife, 2016).

B1: sr-synGAP (residues 103-725) (domain or fragment)
chain: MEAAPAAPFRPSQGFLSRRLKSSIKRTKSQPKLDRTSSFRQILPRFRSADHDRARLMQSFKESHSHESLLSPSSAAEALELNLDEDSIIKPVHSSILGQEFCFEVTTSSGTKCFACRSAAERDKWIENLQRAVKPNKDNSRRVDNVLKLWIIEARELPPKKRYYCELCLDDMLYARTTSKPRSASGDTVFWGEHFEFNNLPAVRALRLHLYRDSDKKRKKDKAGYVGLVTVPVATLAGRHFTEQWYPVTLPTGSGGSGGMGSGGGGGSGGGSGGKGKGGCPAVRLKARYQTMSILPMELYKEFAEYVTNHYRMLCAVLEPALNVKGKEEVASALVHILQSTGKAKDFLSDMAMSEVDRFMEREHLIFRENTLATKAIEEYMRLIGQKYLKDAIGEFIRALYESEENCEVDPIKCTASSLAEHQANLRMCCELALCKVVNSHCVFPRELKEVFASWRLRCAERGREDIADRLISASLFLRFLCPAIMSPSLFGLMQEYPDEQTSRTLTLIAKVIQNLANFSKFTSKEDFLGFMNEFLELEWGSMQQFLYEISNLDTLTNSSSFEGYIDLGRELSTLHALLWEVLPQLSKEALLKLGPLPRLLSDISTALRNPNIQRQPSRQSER
For B1, binding was characterised by a dissociation constant (Kd) of 210 ± 30 nM.
